{"source": "the Human Domainome abundance scans (Beltran et al. 2025)", "parents": {"B1": {"name": "Ankyrin repeat and SAM domain-containing protein 6, residues 774 to 836; numbered along this chain, Q68DC2 (parent)", "chain": "DEDELTGILKKLSLEKYQPIFEEQEVDMEAFLTLTDGDLKELGIKTDGSRQQILAAISELNAG"}}, "note": "± gives the uncertainty stated by the source.", "data": [{"variants_of": "B1", "test": "abundance fitness (aPCA) (normalised: wild type 0, dead -1); higher = more abundant; growth selection in yeast, the domain comes from the species named", "conditions": "Homo sapiens", "values": [{"variant": "DEDELTGILKKLSLFKYQPIFEEQEVDMEAFLTLTDGDLKELGIKTDGSRQQILAAISELNAG", "note": "[E15F]", "abundance fitness": "-0.505 ± 0.12"}, {"variant": "DEDELTGILKKLSLNKYQPIFEEQEVDMEAFLTLTDGDLKELGIKTDGSRQQILAAISELNAG", "note": "[E15N]", "abundance fitness": "-0.492 ± 0.36"}, {"variant": "DEDELTGILKKLSLMKYQPIFEEQEVDMEAFLTLTDGDLKELGIKTDGSRQQILAAISELNAG", "note": "[E15M]", "abundance fitness": "-0.123 ± 0.085"}, {"variant": "DEDELTGILKKLSLAKYQPIFEEQEVDMEAFLTLTDGDLKELGIKTDGSRQQILAAISELNAG", "note": "[E15A]", "abundance fitness": "-0.271 ± 0.062"}, {"variant": "DEDELTGILKKLSLEKYMPIFEEQEVDMEAFLTLTDGDLKELGIKTDGSRQQILAAISELNAG", "note": "[Q18M]", "abundance fitness": "-0.035 ± 0.068"}, {"variant": "DEDELTGILKKLSLEKYIPIFEEQEVDMEAFLTLTDGDLKELGIKTDGSRQQILAAISELNAG", "note": "[Q18I]", "abundance fitness": "-0.051 ± 0.12"}, {"variant": "DEDELTGILKKLSLEKYAPIFEEQEVDMEAFLTLTDGDLKELGIKTDGSRQQILAAISELNAG", "note": "[Q18A]", "abundance fitness": "0.07 ± 0.054"}, {"variant": "DEDELTGILKKLSLEKYYPIFEEQEVDMEAFLTLTDGDLKELGIKTDGSRQQILAAISELNAG", "note": "[Q18Y]", "abundance fitness": "-0.539 ± 0.2"}, {"variant": "DEDELTGILKKLSLEKYWPIFEEQEVDMEAFLTLTDGDLKELGIKTDGSRQQILAAISELNAG", "note": "[Q18W]", "abundance fitness": "-0.31 ± 0.057"}, {"variant": "DEDELTGILKKLSLEKYFPIFEEQEVDMEAFLTLTDGDLKELGIKTDGSRQQILAAISELNAG", "note": "[Q18F]", "abundance fitness": "-0.407 ± 0.08"}, {"variant": "DEDELTGILKKLSLEKYSPIFEEQEVDMEAFLTLTDGDLKELGIKTDGSRQQILAAISELNAG", "note": "[Q18S]", "abundance fitness": "-0.075 ± 0.075"}, {"variant": "DEDELTGILKKLSLEKYEPIFEEQEVDMEAFLTLTDGDLKELGIKTDGSRQQILAAISELNAG", "note": "[Q18E]", "abundance fitness": "-0.119 ± 0.046"}, {"variant": "DEDELTGILKKLSLEKYHPIFEEQEVDMEAFLTLTDGDLKELGIKTDGSRQQILAAISELNAG", "note": "[Q18H]", "abundance fitness": "-0.221 ± 0.17"}, {"variant": "DEDELTGILKKLSLEKYGPIFEEQEVDMEAFLTLTDGDLKELGIKTDGSRQQILAAISELNAG", "note": "[Q18G]", "abundance fitness": "-0.078 ± 0.057"}, {"variant": "DEDELTGILKKLSLEKYLPIFEEQEVDMEAFLTLTDGDLKELGIKTDGSRQQILAAISELNAG", "note": "[Q18L]", "abundance fitness": "-0.092 ± 0.052"}, {"variant": "DEDELTGILKKLSLEKYRPIFEEQEVDMEAFLTLTDGDLKELGIKTDGSRQQILAAISELNAG", "note": "[Q18R]", "abundance fitness": "-0.025 ± 0.071"}, {"variant": "DEDELTGILKKLSLEKYVPIFEEQEVDMEAFLTLTDGDLKELGIKTDGSRQQILAAISELNAG", "note": "[Q18V]", "abundance fitness": "-0.12 ± 0.057"}, {"variant": "DEDELTGILKKLSLEKYCPIFEEQEVDMEAFLTLTDGDLKELGIKTDGSRQQILAAISELNAG", "note": "[Q18C]", "abundance fitness": "-0.146 ± 0.09"}, {"variant": "DEDELTGILKKLSLEKYDPIFEEQEVDMEAFLTLTDGDLKELGIKTDGSRQQILAAISELNAG", "note": "[Q18D]", "abundance fitness": "-0.344 ± 0.17"}, {"variant": "DEDELTGILKKLSLEKYPPIFEEQEVDMEAFLTLTDGDLKELGIKTDGSRQQILAAISELNAG", "note": "[Q18P]", "abundance fitness": "-0.786 ± 0.092"}, {"variant": "DEDELTGILKKLSLEKYNPIFEEQEVDMEAFLTLTDGDLKELGIKTDGSRQQILAAISELNAG", "note": "[Q18N]", "abundance fitness": "-0.538 ± 0.5"}, {"variant": "DEDELTGILKKLSLEKYTPIFEEQEVDMEAFLTLTDGDLKELGIKTDGSRQQILAAISELNAG", "note": "[Q18T]", "abundance fitness": "-0.076 ± 0.075"}, {"variant": "DEDELTGILKKLSLEKYQFIFEEQEVDMEAFLTLTDGDLKELGIKTDGSRQQILAAISELNAG", "note": "[P19F]", "abundance fitness": "-0.285 ± 0.051"}, {"variant": "DEDELTGILKKLSLEKYQHIFEEQEVDMEAFLTLTDGDLKELGIKTDGSRQQILAAISELNAG", "note": "[P19H]", "abundance fitness": "0.005 ± 0.048"}, {"variant": "DEDELTGILKKLSLEKYQCIFEEQEVDMEAFLTLTDGDLKELGIKTDGSRQQILAAISELNAG", "note": "[P19C]", "abundance fitness": "-0.247 ± 0.057"}, {"variant": "DEDELTGILKKLSLEKYQIIFEEQEVDMEAFLTLTDGDLKELGIKTDGSRQQILAAISELNAG", "note": "[P19I]", "abundance fitness": "-0.509 ± 0.05"}, {"variant": "DEDELTGILKKLSLEKYQDIFEEQEVDMEAFLTLTDGDLKELGIKTDGSRQQILAAISELNAG", "note": "[P19D]", "abundance fitness": "-0.023 ± 0.083"}, {"variant": "DEDELTGILKKLSLEKYQGIFEEQEVDMEAFLTLTDGDLKELGIKTDGSRQQILAAISELNAG", "note": "[P19G]", "abundance fitness": "-0.116 ± 0.055"}, {"variant": "DEDELTGILKKLSLEKYQAIFEEQEVDMEAFLTLTDGDLKELGIKTDGSRQQILAAISELNAG", "note": "[P19A]", "abundance fitness": "-0.073 ± 0.068"}, {"variant": "DEDELTGILKKLSLEIYQPIFEEQEVDMEAFLTLTDGDLKELGIKTDGSRQQILAAISELNAG", "note": "[K16I]", "abundance fitness": "-0.408 ± 0.18"}, {"variant": "DEDELTGILKKLSLERYQPIFEEQEVDMEAFLTLTDGDLKELGIKTDGSRQQILAAISELNAG", "note": "[K16R]", "abundance fitness": "-0.203 ± 0.054"}, {"variant": "DEDELTGILKKLSLEHYQPIFEEQEVDMEAFLTLTDGDLKELGIKTDGSRQQILAAISELNAG", "note": "[K16H]", "abundance fitness": "0.011 ± 0.19"}, {"variant": "DEDELTGILKKLSLEPYQPIFEEQEVDMEAFLTLTDGDLKELGIKTDGSRQQILAAISELNAG", "note": "[K16P]", "abundance fitness": "0.001 ± 0.066"}, {"variant": "DEDELTGILKKLSLESYQPIFEEQEVDMEAFLTLTDGDLKELGIKTDGSRQQILAAISELNAG", "note": "[K16S]", "abundance fitness": "-0.103 ± 0.071"}, {"variant": "DEDELTGILKKLSLECYQPIFEEQEVDMEAFLTLTDGDLKELGIKTDGSRQQILAAISELNAG", "note": "[K16C]", "abundance fitness": "-0.083 ± 0.073"}, {"variant": "DEDELTGILKKLSLEEYQPIFEEQEVDMEAFLTLTDGDLKELGIKTDGSRQQILAAISELNAG", "note": "[K16E]", "abundance fitness": "0.175 ± 0.076"}, {"variant": "DEDELTGILKKLSLEQYQPIFEEQEVDMEAFLTLTDGDLKELGIKTDGSRQQILAAISELNAG", "note": "[K16Q]", "abundance fitness": "-0.253 ± 0.13"}, {"variant": "DEDELTGILKKLSLEFYQPIFEEQEVDMEAFLTLTDGDLKELGIKTDGSRQQILAAISELNAG", "note": "[K16F]", "abundance fitness": "-0.339 ± 0.14"}, {"variant": "DEDELTGILKKLSLEVYQPIFEEQEVDMEAFLTLTDGDLKELGIKTDGSRQQILAAISELNAG", "note": "[K16V]", "abundance fitness": "-0.113 ± 0.063"}, {"variant": "DEDELTGILKKLSLEMYQPIFEEQEVDMEAFLTLTDGDLKELGIKTDGSRQQILAAISELNAG", "note": "[K16M]", "abundance fitness": "-0.084 ± 0.086"}, {"variant": "DEDELTGILKKLSLEYYQPIFEEQEVDMEAFLTLTDGDLKELGIKTDGSRQQILAAISELNAG", "note": "[K16Y]", "abundance fitness": "-0.251 ± 0.066"}, {"variant": "DEDELTGILKKLSLEAYQPIFEEQEVDMEAFLTLTDGDLKELGIKTDGSRQQILAAISELNAG", "note": "[K16A]", "abundance fitness": "0.074 ± 0.046"}, {"variant": "DEDELTGILKKLSLEGYQPIFEEQEVDMEAFLTLTDGDLKELGIKTDGSRQQILAAISELNAG", "note": "[K16G]", "abundance fitness": "-0.135 ± 0.046"}]}]}
